Source: PMC10920689
Blank lines part the entries; values can stand above or below the substance they belong to.

Assays:
[1] = target: anti-NIP human IgG1 Q311R/M428E/N434W (REW) (human); assay: SPR; Biacore 3000; NIP IgG1 variants amine-coupled (300 RU) to CM5 chips; serial dilutions of monomeric hFcRn-His injected at pH 6.0 (phosphate), 50 μl/min, 25 °C; Langmuir 1:1 model
[2] = target: truncated soluble human FcRn of the FcRn binding ELISAs (hFcRn-GST or biotinylated human FcRn; the form is not told for the panel) (UniProt P55899)
[3] = target: anti-NIP IgG1 DHS (human); assay: SPR; IgG variants amine-coupled to CM5 chips (300 RU), serial dilutions of monomeric hFcRn-His injected; phosphate buffer pH 6.0, 25 °C, 50 µl/min; 1:1 Langmuir model
anti-NIP IgG1 LS (human) = assay: as above
anti-NIP IgG3 WT (human) = assay: as above
anti-NIP IgG2 WT (human) = assay: as above
[4] = target: anti-NIP IgG3 R435H/REW (human); assay: as above
anti-NIP IgG1 KF (human) = assay: as above
anti-NIP IgG1 WT (human) = assay: as above
[5] = target: recombinant etanercept WT; assay: as above
[6] = target: anti-NIP IgG1 YTE/KF (human); assay: as above
[7] = target: anti-NIP IgG1 Q311R/M428E/N434W (REW) (human); assay: as above
[8] = target: anti-NIP IgG2 REW (human); assay: as above
[9] = target: anti-NIP IgG4 REW (human); assay: as above
[10] = target: anti-NIP IgG1 YTE (human); assay: as above
anti-NIP IgG4 WT (human) = assay: as above
[11] = target: truncated soluble human FcRn of the FcRn binding ELISAs (hFcRn-GST or biotinylated human FcRn; the form is not told for the panel) (UniProt P55899); remark: listed apart in the source
[12] = target: human FcRn coupled to the FcRn retention column (UniProt P55899); assay: analytical FcRn affinity chromatography; 100 μg NIP IgG1 variant injected over a human FcRn retention column at pH 6.0, eluted by a pH gradient 6.0 to 8.8 over 110 min (20 mM MES, 140 mM NaCl pH 6.0; 20 mM Tris/HCl, 140 NaCl pH 8.8)
[13] = target: truncated soluble biotinylated mouse FcRn lacking the transmembrane domain (mouse | not stated) (UniProt Q61559)

fold lower KD than WT [1]: 20 fold
Substance: truncated soluble His6x tagged human FcRn lacking the transmembrane domain (hFcRn-His), monomeric fraction (from UniProt P55899 24-297; P61769 21-119) (receptor)

plasma half-life in Tg32 mice preloaded with IVIg [2]: 276 h
Substance: anti-NIP human IgG2 Q311R/M428E/N434W (REW) (antibody)

Kd [3]: 40.3 nM
koff [3]: 0.0304 s⁻¹
kon [3]: 756000 M⁻¹ s⁻¹
Kd (anti-NIP IgG1 LS (human)): 13.7 nM
koff (anti-NIP IgG1 LS (human)): 0.0058 s⁻¹
kon (anti-NIP IgG1 LS (human)): 422000 M⁻¹ s⁻¹
Kd (anti-NIP IgG3 WT (human)): 525 nM
koff (anti-NIP IgG3 WT (human)): 0.177 s⁻¹
kon (anti-NIP IgG3 WT (human)): 337000 M⁻¹ s⁻¹
Kd (anti-NIP IgG2 WT (human)): 388 nM
koff (anti-NIP IgG2 WT (human)): 0.0536 s⁻¹
kon (anti-NIP IgG2 WT (human)): 138000 M⁻¹ s⁻¹
Kd [4]: 10.3 nM
koff [4]: 0.007 s⁻¹
kon [4]: 674000 M⁻¹ s⁻¹
Kd (anti-NIP IgG1 KF (human)): 15.9 nM
koff (anti-NIP IgG1 KF (human)): 0.0122 s⁻¹
kon (anti-NIP IgG1 KF (human)): 770000 M⁻¹ s⁻¹
Kd (anti-NIP IgG1 WT (human)): 171 nM
koff (anti-NIP IgG1 WT (human)): 0.0825 s⁻¹
kon (anti-NIP IgG1 WT (human)): 483000 M⁻¹ s⁻¹
Kd [5]: 346 nM
koff [5]: 0.12 s⁻¹
kon [5]: 348000 M⁻¹ s⁻¹
Kd [6]: 3.44 nM
koff [6]: 0.003 s⁻¹
kon [6]: 871000 M⁻¹ s⁻¹
Kd [7]: 8.39 nM
koff [7]: 0.0055 s⁻¹
kon [7]: 653000 M⁻¹ s⁻¹
Kd [8]: 13.3 nM
koff [8]: 0.0075 s⁻¹
kon [8]: 570000 M⁻¹ s⁻¹
Kd [9]: 13.1 nM
koff [9]: 0.008 s⁻¹
kon [9]: 606000 M⁻¹ s⁻¹
Kd [10]: 28.2 nM
koff [10]: 0.0168 s⁻¹
kon [10]: 594000 M⁻¹ s⁻¹
Kd (anti-NIP IgG4 WT (human)): 1280 nM
koff (anti-NIP IgG4 WT (human)): 0.123 s⁻¹
kon (anti-NIP IgG4 WT (human)): 95800 M⁻¹ s⁻¹
Substance: truncated soluble His6x tagged human FcRn lacking the transmembrane domain (hFcRn-His) (from UniProt P55899 24-297; P61769 21-119) (receptor)

plasma half-life in Tg32 mice preloaded with IVIg [2]: 202 h
Substance: anti-NIP human IgG2 wild type (antibody)

plasma half-life after i.v. injection (5 mg/kg) in human FcRn transgenic mice (Tg32) preloaded with IVIg [11]: 341 h
pH of elution from the FcRn column [12]: 7.58 pH
plasma half-life in conventional mice, against WT [13]: 2 fold
Substance: anti-NIP human IgG1 Q311R/M428E/N434W (REW) (antibody)

plasma half-life after i.v. injection (5 mg/kg) in human FcRn transgenic mice (Tg32) preloaded with IVIg [11]: 187 h
pH of elution from the FcRn column [12]: 6.95 pH
Substance: anti-NIP human IgG1 wild type (antibody)
